# Assay results reported in patent publication US5849885.
# Target: casein fraction of whole cow milk
# Assay: competitive inhibition RIA of bLF in the casein pellet after centrifugation of whole cow milk, no addition (mean + SD, n=10); the same table gives 4 with +0.4M NaCl and 32 after acid precipitation
substance,measurement,value
bovine lactoferrin (from UniProt P24627),% of total bLF found in the casein fraction,21%
